According to the supplement of paper PMC9876800:

Tested on: peptide library, one residue held at a place counted from the S/T acceptor
Experiment: relative phosphorylation of the sub-library (ratio to the mean residue at this position); higher = residue favoured
Summary of the method: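 In 384-well plates, purified recombinant kinases (human or orthologue constructs) were incubated for 90 min under kinase-specific conditions with 50 μM biotinylated degenerate peptide sub-libraries and 50 μM ATP spiked with γ-32P-ATP. Each sub-library fixed a single residue at one position around a central Ser/Thr. Relative sub-library phosphorylation, measured by phosphorimaging and densitometry of streptavidin membrane spots, is given as a ratio to the mean residue at that position.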

BMPR2, construct: aa172-end, human, sequence (Q13873 172-1038, looked up): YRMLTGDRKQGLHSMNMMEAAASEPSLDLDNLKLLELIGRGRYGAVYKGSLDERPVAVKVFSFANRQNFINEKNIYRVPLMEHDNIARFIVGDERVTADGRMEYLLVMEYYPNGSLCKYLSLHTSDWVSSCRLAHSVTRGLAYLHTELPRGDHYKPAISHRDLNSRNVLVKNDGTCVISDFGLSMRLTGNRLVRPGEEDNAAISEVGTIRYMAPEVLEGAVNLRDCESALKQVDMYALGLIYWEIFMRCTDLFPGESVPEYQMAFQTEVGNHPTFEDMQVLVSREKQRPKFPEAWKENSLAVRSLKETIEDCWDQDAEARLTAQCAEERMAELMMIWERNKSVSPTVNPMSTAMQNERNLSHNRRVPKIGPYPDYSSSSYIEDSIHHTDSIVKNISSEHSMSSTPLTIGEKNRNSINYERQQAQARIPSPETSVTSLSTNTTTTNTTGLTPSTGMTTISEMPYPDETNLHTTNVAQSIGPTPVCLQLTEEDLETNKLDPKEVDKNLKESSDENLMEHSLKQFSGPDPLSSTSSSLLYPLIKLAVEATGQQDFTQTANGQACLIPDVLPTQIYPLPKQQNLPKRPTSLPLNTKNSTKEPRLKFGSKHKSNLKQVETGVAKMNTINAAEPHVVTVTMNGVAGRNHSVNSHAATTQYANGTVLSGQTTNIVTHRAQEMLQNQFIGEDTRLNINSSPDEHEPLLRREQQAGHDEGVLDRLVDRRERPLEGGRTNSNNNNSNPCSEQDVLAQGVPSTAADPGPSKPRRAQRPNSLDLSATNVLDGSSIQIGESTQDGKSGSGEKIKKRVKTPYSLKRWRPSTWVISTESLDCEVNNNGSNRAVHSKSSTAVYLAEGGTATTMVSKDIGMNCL

BMPR2, construct: aa172-end, human (from UniProt Q13873)
relative phosphorylation
Settings	at +1	at +2	at +3	at +4	at -1	at -2	at -3	at -4	at -5
A fixed	0.89	1	0.941	0.96	0.845	0.887	0.99	1.11	1.08
D fixed	0.946	1.13	0.871	0.94	0.963	1.86	1.24	1.1	1.08
E fixed	1.08	1.08	0.844	0.951	0.944	1.91	1.19	1.18	1.04
F fixed	0.929	0.88	0.927	0.94	1.1	0.825	0.977	0.973	1.06
G fixed	0.969	1.04	1.1	1.02	0.839	1.05	1.08	1.01	1.06
H fixed	1.1	1.04	1.03	1	1.01	0.904	1.08	0.978	0.96
I fixed	1.02	0.889	0.92	0.868	0.862	0.728	0.892	0.911	0.971
K fixed	0.831	1.03	1.04	1.1	0.822	0.791	0.835	0.935	0.913
L fixed	1.04	0.905	0.934	0.935	1.1	0.786	0.869	0.928	0.913
M fixed	1.15	0.989	0.93	0.943	1.24	0.797	0.955	0.936	0.895
N fixed	1.02	0.987	1.01	0.963	0.968	1.05	1.03	0.938	0.898
P fixed	0.724	1.02	1.17	1.08	0.738	0.809	0.965	1.09	0.948
Q fixed	1.04	1.01	0.949	0.973	0.986	1.15	1.04	0.919	0.861
R fixed	0.933	1	1.22	1.18	0.905	0.816	0.873	0.867	0.956
V fixed	0.999	0.972	0.989	0.926	1.03	0.822	0.862	0.979	1.01
W fixed	1.1	0.94	0.998	1.16	1.24	0.855	1.03	1.05	1.18
Y fixed	1.24	1.1	1.12	1.05	1.4	0.95	1.11	1.09	1.18
pThr fixed	1.02	1.04	0.847	0.873	0.862	0.993	1.15	1.08	0.979
pTyr fixed	0.907	0.891	0.883	0.86	1.56	1.06	1.34	1.1	1.07

CDC42BPB, construct: aa1-473, human (from UniProt Q9Y5S2)
relative phosphorylation
Settings	at +1	at +2	at +3	at +4	at -1	at -2	at -3	at -4	at -5
A fixed	0.871	1.22	0.922	0.791	0.734	0.478	0.556	0.951	0.922
D fixed	0.4	0.468	0.548	0.721	0.379	0.196	0.199	0.472	0.427
E fixed	0.435	0.373	0.654	0.667	0.313	0.181	0.204	0.506	0.479
F fixed	0.776	0.935	1.01	0.821	0.552	0.442	0.381	0.718	0.843
G fixed	0.803	1.1	1.42	1.07	0.883	0.45	0.44	0.974	1.04
H fixed	0.962	1.19	1.2	1.11	1.21	0.989	1.03	1.06	0.99
I fixed	1.55	1.32	0.96	0.924	0.572	0.419	0.382	0.651	0.788
K fixed	0.865	1.58	1.03	1.34	2.46	2.78	2.55	2.46	2.54
L fixed	1.74	0.816	0.841	0.852	1.36	0.423	0.326	0.7	0.645
M fixed	1.24	0.823	0.944	0.919	1.04	0.459	0.36	0.775	0.664
N fixed	1.89	0.819	0.918	0.856	1.2	0.787	0.524	0.756	0.812
P fixed	0.404	0.842	0.888	1.38	0.786	0.433	0.371	0.873	0.875
Q fixed	1.08	0.699	0.829	1.08	1.09	0.798	0.648	0.851	0.786
R fixed	1.41	1.65	1.52	1.52	2.15	6.46	7.75	3.03	2.81
V fixed	0.983	1.13	0.936	0.787	0.667	0.397	0.335	0.637	0.768
W fixed	0.852	0.934	1.06	1.23	0.648	0.718	0.524	0.849	0.756
Y fixed	0.736	1.12	1.33	0.93	0.97	0.591	0.425	0.735	0.856
pThr fixed	0.479	0.762	0.582	0.698	0.344	0.329	0.352	0.647	0.611
pTyr fixed	0.553	0.745	0.707	0.685	0.467	0.319	0.545	0.558	0.62
